This passage reports fold difference against mAb IV.3, fold staining against mAb IV.3 and MFI results from US20080248465A1.

Assay [1] deals with human FcγRIIa, H131 allele (human) (UniProt P12318). Nature of the assay: flow cytometry on FcγRIIa (H131) transfectants. On the technique in general: In flow cytometry, cells or beads pass a laser one at a time.
The target of assay [2] is human FcγRIIb (human) (UniProt P31994). Nature of the assay: flow cytometry on FcγRIIb transfectants.
The target of assay [3] is human FcγRIIa, R131 allele (human) (UniProt P12318). In words: flow cytometry on FcγRIIa (R131) transfectants.
The target of assay [4] is human FcγRIIb (human) (UniProt P31994). In words: flow cytometry, background staining on peripheral B lymphocytes of 2B.1/2B.4 donors.
Assay [5] shares this target. In words: flow cytometry, background staining on EBV-transformed B cells of 2B.1/2B.4 donors.
Assay [6] has the same target. Nature of the assay: flow cytometry, background staining on EBV-transformed B cells of 2B.1/2B.1 donors.
For assay [7] the target is unchanged. Nature of the assay: flow cytometry, background staining on peripheral B lymphocytes of 2B.1/2B.1 donors.
The target is the same in assay [8]. In words: flow cytometry, background staining on EBV-transformed B cells of a 2B.4/2B.4 donor.

Chain of UniProt P31994 (P31994 43-310): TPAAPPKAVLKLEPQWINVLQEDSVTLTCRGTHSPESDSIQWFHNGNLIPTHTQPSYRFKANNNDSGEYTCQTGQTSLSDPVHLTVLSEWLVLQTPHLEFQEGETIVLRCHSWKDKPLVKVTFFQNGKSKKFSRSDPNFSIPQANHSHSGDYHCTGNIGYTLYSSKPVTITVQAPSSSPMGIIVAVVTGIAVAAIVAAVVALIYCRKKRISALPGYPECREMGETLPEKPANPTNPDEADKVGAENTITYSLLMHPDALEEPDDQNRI

On to mAb AT-10 (antibody), for which the fold difference against mAb IV.3 in assay [1] and in assay [3] was under 2 fold each time. Moreover, the fold staining against mAb IV.3 in assay [2] stood at 10 fold.
On to mIgG1 isotype control (antibody), for which the MFI in assay [4] turned out to be 3.9 MFI; in assay [5] it was 3.6 MFI; in assay [6], 3.6 MFI; in assay [7], 4.1 MFI; in assay [8], 3.9 MFI.
